Measurements published in patent publication US20230312745A1.
Each block holds one molecule with its values, some of them ahead of it.

What was measured:
[1] = molecular target: Ly6C on mouse blood mononuclear cells (mouse) (UniProt P0CW02); assay: flow cytometry contour plot of live mononuclear-gated blood cells 1 h after injection into DSS treated mice; upper left quadrant 9.7; Mock panel 14.6 and 0.30
[2] = molecular target: Rat IgG2a (RIg), clone FIB504 (BioXcell); assay: ELISA, plate coated with RIg, serial dilutions of ASSET, anti-His detection
[3] = molecular target: Rat IgG2a (RIg), clone FIB504 (BioXcell); assay: ELISA on coated RIg, ASSET LNPs after dialysis, pre-incubated with 0.2% Triton X-100
[4] = molecular target: anti-CD34 antibody (clone mec14.7) RIg, self-assembled on ASSET LNPs (TsiLNPs); assay: RIg taken up by ASSET LNPs, acrylamide gel against free RIg dilutions / western blot after 1 MDa dialysis
[5] = molecular target: LFA-1 on the mouse T cell lymphoma cell line TK1 (mouse) (UniProt P24063); assay: flow cytometry, control: secondary scFv on TK1 cells without RIg; left gate 97.9; unstain 1.87; target taken as the LFA-1 carried by TK1 cells

Sequence of UniProt P0CW02 (P0CW02 27-109): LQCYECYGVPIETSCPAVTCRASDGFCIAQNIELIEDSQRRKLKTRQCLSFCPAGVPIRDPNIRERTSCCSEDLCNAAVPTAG

number in the upper right quadrant (Ly6C high, siCy5 high) [1]: 0.53
Molecule: isotype control RIg (BioXcell), self-assembled on ASSET LNPs (TsiLNPs) (antibody)

Kd [2]: 10 nM
functionality maintained after incorporation into LNPs [3]: 95.8%
IgG incorporation [4]: 98.3%
B1: ASSET (Anchored Secondary scFv Enabling Targeting) (scFv, part only; not given: mCherry fusion partner, part only)
scFv, part: CDQSSSEVQLLQSGPELVKPGASVKIPCKASGYTFTDYNMDWVKQSHEKSLEWIGYINPYSGDTIYNHKFKDKATLTVYKSSNIAYMELRSLTSEDTAVYYCARGGYDYGDHWGQGTTLTVSSGSAGGGGSGGGGSGGGGSDIKMTQSPSSMYASLGERVTITCKASQDINSYLSWFQQKPGKSPKTLIYRANRLVDGVPSRFSGSGSGQDYSLTISSLEYEDMGIYYCLQDDEFPRTFGGGTKLEIKHHHHHH
modifications: N-terminal cysteine of the CDQSSS NlpA motif is lipidated (bacterial lipidation)

number in the right (positive) gate of the histogram [5]: 2.06
B2: Secondary scFv (scFv of clone RG7/1.30, without lipidation motif) (scFv)
scFv: HHHHHHEVQLLQSGPELVKPGASVKIPCKASGYTFTDYNMDWVKQSHEKSLEWIGYINPYSGDTIYNHKFKDKATLTVYKSSNIAYMELRSLTSEDTAVYYCARGGYDYGDHWGQGTTLTVSSGSAGGGGSGGGGSGGGGSDIKMTQSPSSMYASLGERVTITCKASQDINSYLSWFQQKPGKSPKTLIYRANRLVDGVPSRFSGSGSGQDYSLTISSLEYEDMGIYYCLQDDEFPRTFGGGTKLEIK
